From article PMC3944073

Biological target: GFP-β-DGNLS fusion protein
Experiment: AlphaScreen or HTRF; ALPHAScreen; His6-tagged GFP-β-DG-NLS at a fixed amount per well with increasing GST-ezrin, GST-IMPα2/β1 or GST alone (0-60 nM); nickel chelate acceptor beads and streptavidin donor beads; room temperature; apparent dissociation constants from sigmoidal fits

GST-ezrin (mouse) (from UniProt P26040 1-586) (natural protein)
Kd: 2.22 nM
